Stoichiometry N data for 2 substances are collected here from article PMC5050560.

For assay [1], the target named is cdPadR1 (PadR family transcription regulator, product of CDR20291_0991, Clostridium difficile R20291) (Clostridium difficile R20291). The experiment in a line: SEC.
Assay [2] has the same target. Nature of the assay: SEC-MALS.
The target in assay [3] is cdPadR1^W94A (Clostridium difficile R20291). The experiment in a line: SEC-MALS.

As to “cdPadR1 (PadR family transcription regulator, product of CDR20291_0991, Clostridium difficile R20291) (from UniProt A0A9R0CDW8 1-109) (natural protein)”, the stoichiometry N in assay [1] and in assay [2] was 2 in each case. In turn, “cdPadR1^W94A (from UniProt A0A9R0CDW8 1-109) (natural protein)” came in with a stoichiometry N in assay [3] of 2.
